Ends that are not written are not given here.
B1: IGF1 (Y^B16L^B17) (ligand)
chain 1: GIVDECCFRSCDLRRLEMYCA
chain 2: GPETLCGAELVDALYLVCGDRGFYFNKPT
notes: also called IGF analog IGF1 (Y^B16L^B17)
B2: #57: Gly^B2-PEG20K-Gly^B2 #11 dimer (ligand)
chain: GPEHLCGAHLVDALYLVCGDRGFYGYGSSSRRAPQTGIVDECCHRSCDLRRLENYCN
modifications: not fully specified (N-terminus); ends and bridges not checked; also: dimer: N-terminal amines of two chains joined by bifunctional 20K PEG linker

Legend:
human insulin receptor [1] = target: T1, human insulin receptor (human, UniProt P06213 28-1382); experiment: competition SPA, [125I]insulin
T1 construct: whole, on cells; receptor-transfected HEK293 cells in the phosphorylation assay

human IGF-1 receptor [2] = target: T2, human IGF-1 receptor (human, UniProt P08069 31-1367); experiment: cell-based or functional assay
human IGF-1 receptor [3] = target: T2, human IGF-1 receptor; experiment: cell-based or functional assay; remark: listed apart in the source
human insulin receptor [4] = target: T1, human insulin receptor; experiment: cell-based or functional assay

Binder | IC50 (human insulin receptor [1]) [nM] | Phosphorylation (EC50), % IGF-1 R (human IGF-1 receptor [2]) [%] | % Insulin Activity (in vitro, assay not named) (human IGF-1 receptor [3]) [%] | potency in vitro against monomer #39 (human insulin receptor [4]) [fold]
B1 | 0.51 |  |  | 
B2 |  | 2.6 | 2.6 | ~5

— US20150274802A1 (INDIANA UNIVERSITY RESEARCH AND TECHNOLOGY, published 2015)
